In IntAct's records for PubMed 29039417:

B1: BBSome complex member BBS2 (Homo sapiens), Q9BXC9 (parent)
chain: MLLPVFTLKLRHKISPRMVAIGRYDGTHPCLAAATQTGKVFIHNPHTRNQHVSASRVFQSPLESDVSLLSINQAVSCLTAGVLNPELGYDALLVGTQTNLLAYDVYNNSDLFYREVADGANAIVLGTLGDISSPLAIIGGNCALQGFNHEGSDLFWTVTGDNVNSLALCDFDGDGKKELLVGSEDFDIRVFKEDEIVAEMTETEIVTSLCPMYGSRFGYALSNGTVGVYDKTSRYWRIKSKNHAMSIHAFDLNSDGVNELITGWSNGKVDARSDRTGEVIFKDNFSSAIAGVVEGDYRMDGHIQLICCSVDGEIRGYLPGTAEMRGNLMDTSAEQDLIRELSQKKQNLLLELRNYEENAKAELASPLNEADGHRGIIPANTRLHTTLSVSLGNETQTAHTELRISTSNDTIIRAVLIFAEGIFTGESHVVHPSIHNLSSSICIPIVPPKDVPVDLHLKAFVGYRSSTQFHVFESTRQLPRFSMYALTSLDPASEPISYVNFTIAERAQRVVVWLGQNFLLPEDTHIQNAPFQVCFTSLRNGGHLHIKIKLSGEITINTDDIDLAGDIIQSMASFFAIEDLQVEADFPVYFEELRKVLVKVDEYHSVHQKLSADMADHSNLIRSLLVGAEDARLMRDMKTMKSRYMELYDLNRDLLNGYKIRCNNHTELLGNLKAVNQAIQRAGRLRVGKPKNQVITACRDAIRSNNINTLFKIMRVGTASS
partner: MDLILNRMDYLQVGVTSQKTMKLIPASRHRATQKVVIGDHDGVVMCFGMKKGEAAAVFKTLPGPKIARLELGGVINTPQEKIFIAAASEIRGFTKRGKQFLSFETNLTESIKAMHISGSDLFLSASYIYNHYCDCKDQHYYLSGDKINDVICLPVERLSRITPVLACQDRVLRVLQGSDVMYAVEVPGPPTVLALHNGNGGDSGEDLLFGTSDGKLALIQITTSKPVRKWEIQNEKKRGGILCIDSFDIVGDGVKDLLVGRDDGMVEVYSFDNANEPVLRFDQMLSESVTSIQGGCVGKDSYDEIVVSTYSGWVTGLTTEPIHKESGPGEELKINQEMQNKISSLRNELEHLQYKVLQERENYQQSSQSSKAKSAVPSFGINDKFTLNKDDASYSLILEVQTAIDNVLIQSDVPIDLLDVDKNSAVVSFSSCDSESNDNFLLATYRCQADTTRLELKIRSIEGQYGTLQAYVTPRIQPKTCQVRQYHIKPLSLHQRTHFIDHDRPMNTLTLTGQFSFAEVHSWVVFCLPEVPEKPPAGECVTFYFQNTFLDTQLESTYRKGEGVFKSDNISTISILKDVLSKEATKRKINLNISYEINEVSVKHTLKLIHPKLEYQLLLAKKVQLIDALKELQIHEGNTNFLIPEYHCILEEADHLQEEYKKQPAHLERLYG

Variants of: B1
Conditions: with BBS7, Q8IWZ6-2

Variant | effect of a mutation on the interaction
F518K | with no effect
F518L | disrupting interaction strength
F518E | with no effect
F518A | with no effect
E522K | with no effect
E522A | with no effect
C534E | with no effect
C534K | with no effect
C534A | with no effect
V510A | with no effect
V510E | with no effect
V510K | disrupting interaction strength
P521A | with no effect
P521E | with no effect
P521K | with no effect
P530A | with no effect
P530K | with no effect
P530E | with no effect
W513A | disrupting interaction strength
W513G | disrupting interaction strength
W513R | disrupting interaction strength
W513E | disrupting interaction strength

Variant | effect of a mutation on the interaction
W513K | disrupting interaction strength
Q508A | with no effect
Q508E | with no effect
Q508K | with no effect
Q527K | with no effect
Q527E | with no effect
Q527A | with no effect
V511E | with no effect
V511K | with no effect
V511A | with no effect
Q516A | with no effect
Q516E | with no effect
Q516K | with no effect
A507K | with no effect
A507E | with no effect
N517A | with no effect
N517E | with no effect
N517K | disrupting interaction strength
A529E | with no effect
A529K | with no effect
V533E | disrupting interaction strength
V533K | with no effect

Variant | effect of a mutation on the interaction
V533A | with no effect
V512A | with no effect
V512K | with no effect
V512E | with no effect
R506E | with no effect
R506A | disrupting interaction strength
R506K | with no effect
L519A | with no effect
L519E | disrupting interaction strength
L519K | with no effect
L520E | with no effect
L520A | with no effect
L520K | with no effect
L514K | with no effect
L514E | with no effect
L514A | with no effect
F531K | with no effect
F531A | with no effect
F531E | with no effect
D523A | with no effect
D523K | with no effect
D523E | with no effect

Variant | effect of a mutation on the interaction
Q532A | disrupting interaction strength
Q532K | with no effect
Q532E | with no effect
R509K | with no effect
R509E | with no effect
R509A | with no effect
T524A | with no effect
T524E | with no effect
T524K | with no effect
E505K | with no effect
N528E | with no effect
N528A | with no effect
N528K | with no effect
G515E | with no effect
G515A | with no effect
G515K | with no effect
I526E | with no effect
I526K | with no effect
I526A | with no effect
H525K | with no effect
H525A | with no effect
H525E | with no effect
